Reference: US20250155429A1
One block for each substance: values may come before it.

Legend:
CD8 [1] = assay: same staining; plot CD8 against CD4: upper right 0.30, lower left 11.12
CD8 [2] = assay: same staining; plot CD8 against CD3, all events CD3-positive: upper left 0.00, lower left 0.00, lower right 71.27
CD45 [3] = assay: flow cytometry of PBMCs stained at once with mouse IgG1 anti-CD45 (linker-488, FITC), mouse IgG2a anti-CD3 (linker-555, PE), mouse IgG2b anti-CD4 (linker-647, APC); left plot: Q5 0, Q8 0.21
CD45 [4] = assay: flow cytometry of PBMCs, co-staining in the BSA series, 10% BSA; left quadrants 0.00 and 0.01
CD45 [5] = assay: flow cytometry of PBMCs, co-staining in the BSA series, 0% BSA; left quadrants 0.00 and 0.01
CD45 [6] = assay: flow cytometry of PBMCs stained with four mouse IgG1 primaries, each pre-labelled with an anti-mouse IgG1 linker; plot CD3 against CD45: upper left 0.03, lower left 0.14
CD45 [7] = assay: flow cytometry of PBMCs, co-staining in the BSA series, 20% BSA; left quadrants 0.00 and 0.00
[8] = molecular target: CD3 (Homo sapiens (Human)) (UniProt P07766); assay: flow cytometry of PBMCs, FSC-H against APC-A, No Quencher; Q4 100.0

% of cells, upper left quadrant (CD8-positive, CD4-negative) (CD8 [1]): 28.4%
% of cells, upper right quadrant (CD3+/CD8+) (CD8 [2]): 28.7%
Substance: CD8 (65144-1-Ig) (antibody)

Q6 (% of cells, FITC-positive and PE-positive) (CD45 [3]): 55.4%
Q7 (% of cells, FITC-positive and PE-negative) (CD45 [3]): 44.4%
% of cells, lower right quadrant (CD45-positive, CD3-negative) (CD45 [4]): 46.1%
% of cells, upper right quadrant (CD45-positive, CD3-positive) (CD45 [4]): 53.9%
% of cells, lower right quadrant (CD45-positive, CD3-negative) (CD45 [5]): 47%
% of cells, upper right quadrant (CD45-positive, CD3-positive) (CD45 [5]): 52.9%
% of cells, lower right quadrant (CD45-positive, CD3-negative) (CD45 [6]): 28.5%
% of cells, upper right quadrant (CD3+/CD45+) (CD45 [6]): 71.4%
% of cells, lower right quadrant (CD45-positive, CD3-negative) (CD45 [7]): 45.7%
% of cells, upper right quadrant (CD45-positive, CD3-positive) (CD45 [7]): 54.3%
Substance: CD45 (65109-1-Ig) (antibody)

Q3 (% of cells, APC-positive) [8]: 0.025%
Substance: mouse IgG1 isotype control (antibody)
